B1: HDV Ribozyme (parent)
chain: GGCCGGCAUGGUCCCAGCCUCCUCGCUGGCGCCGGCUGGGCAACAUUCCGAGGGGACCGUCCCCUCGGUAAUGGCGAAUGGGACCCA

Our source for the self-cleavage values is the RNAGym collection of RNA variant scans (doi:10.7554/elife.80360).

In this series the parent is B1. The series can be described thus: self-cleavage, relative activity (ratio to wild type); higher = more cleavage; co-transcriptional.
Take C24U C30U: the self-cleavage amounted to 0.142.

Turning to C24U C30G, the self-cleavage is 0.122.

In the case of C24U G34A, the self-cleavage is 0.0292.

As for C24U G34C, the self-cleavage came out at 0.135.

C24A U79G: the self-cleavage came out at 0.312.

As to C24A U79C, the self-cleavage came out at 0.12.

In the case of C24G C66G, the self-cleavage stood at 0.13.

With C24G C66U, the self-cleavage amounted to 0.166.

With C24G G38C, the self-cleavage stood at 0.0791.

Regarding C24G G38A, the self-cleavage came out at 0.0631.

Consider C24G C64G, for which the self-cleavage was 0.131.

In the case of C24G C64U, the self-cleavage is 0.0886.

C24G A71C: the self-cleavage was found to be 0.

Turning to C24G A71U, the self-cleavage was determined as 0.106.

For the variant C24G A71G, the self-cleavage worked out at 0.102.

With C24G G68C, the self-cleavage is 0.126.

In the case of C24G G68U, the self-cleavage was determined as 0.0191.

For the variant C24U G74A, the self-cleavage was 0.0639.

Regarding C24U G74C, the self-cleavage worked out at 0.332.

On to C24A G74U, for which the self-cleavage amounted to 0.16.

As for C24A G74A, the self-cleavage amounted to 0.12.

As to C24A A83G, the self-cleavage came to 0.626.

In the case of C24G A83C, the self-cleavage stood at 0.0923.

With C24G A83U, the self-cleavage came to 0.141.

In the case of C24A C57A, the self-cleavage is 0.842.

Take C24G C41A: the self-cleavage was 0.113.

As to C24G G59C, the self-cleavage was found to be 0.0923.

Regarding C24G G59A, the self-cleavage stood at 0.0955.

For the variant C24G G59U, the self-cleavage came out at 0.147.

With C24U U27A, the self-cleavage came to 0.399.

Take C24U U27C: the self-cleavage worked out at 0.332.

Consider C24U U27G, for which the self-cleavage is 0.431.

Take C24A G82C: the self-cleavage is 0.249.

Turning to C24A G82U, the self-cleavage came out at 0.328.

Turning to C24A C75A, the self-cleavage came to 0.219.

On to C24A C66U, for which the self-cleavage amounted to 0.69.

Consider C24A C66G, for which the self-cleavage amounted to 0.731.

For the variant C24U G82C, the self-cleavage was 0.163.

With C24U G82U, the self-cleavage was 0.0692.

As for C24U C49A, the self-cleavage was found to be 0.739.

As for C24U C49G, the self-cleavage is 0.536.

With C24U C61A, the self-cleavage worked out at 0.591.

For the variant C24U C61U, the self-cleavage worked out at 0.718.

Consider C24U U37G, for which the self-cleavage was 0.138.

For C24G C57A, the self-cleavage amounted to 0.0432.

C24A G31U: the self-cleavage came to 0.0519.

For C24A G31A, the self-cleavage was found to be 0.0332.

Take C24G C30A: the self-cleavage worked out at 0.0898.

With C24G C30U, the self-cleavage worked out at 0.0712.

For the variant U23G G59A, the self-cleavage amounted to 0.708.

For U23G G59C, the self-cleavage came to 0.9.

For C24U C33U, the self-cleavage amounted to 0.354.

Regarding C24A U65A, the self-cleavage amounted to 0.735.

C24A U65G: the self-cleavage was found to be 0.511.

Take C24A C36A: the self-cleavage worked out at 0.175.

For C24U C75G, the self-cleavage came out at 0.119.

Turning to C24A C64G, the self-cleavage turned out to be 0.749.

With C24A C64U, the self-cleavage stood at 0.866.

As to U23G G80C, the self-cleavage worked out at 0.147.

Consider C24U A43C, for which the self-cleavage was 0.0739.

As to C24G G55U, the self-cleavage is 0.16.

Regarding C24G G55C, the self-cleavage was found to be 0.0656.

As for G25A A42G, the self-cleavage is 0.158.

Turning to C24A U37A, the self-cleavage stood at 0.145.

Regarding C24A U37C, the self-cleavage was found to be 0.974.

In the case of C24A U37G, the self-cleavage stood at 0.142.

C24G C86G: the self-cleavage is 0.112.

In the case of C24G C86A, the self-cleavage amounted to 0.106.

Take U23G U72A: the self-cleavage amounted to 0.341.

Turning to U23G U72G, the self-cleavage came to 0.214.

Consider C24A U69A, for which the self-cleavage was 0.635.

For C24G C48A, the self-cleavage was 0.0519.

With C24G C48U, the self-cleavage is 0.14.

Take C24G G53U: the self-cleavage was 0.117.

Consider C24U C84A, for which the self-cleavage was 0.543.

Consider C24U C84G, for which the self-cleavage is 0.157.

Take C24U G67A: the self-cleavage worked out at 0.554.

With C24U G67U, the self-cleavage stood at 0.372.

For G25A A51U, the self-cleavage came out at 0.318.

Take G25A A51C: the self-cleavage was 0.213.

C24G G34U: the self-cleavage was 0.0268.

For the variant C24G G34A, the self-cleavage was determined as 0.0332.

For the variant C24G G34C, the self-cleavage came out at 0.0437.

Turning to C24A A45U, the self-cleavage was found to be 0.541.

In the case of C24A A45G, the self-cleavage worked out at 0.898.

Consider C24G G82C, for which the self-cleavage was determined as 0.

Turning to C24G G82A, the self-cleavage is 0.

Regarding C24A C26G, the self-cleavage is 0.858.

Consider C24A C26U, for which the self-cleavage was found to be 1.05.

For C24U G52A, the self-cleavage worked out at 0.554.

Consider C24U G25U, for which the self-cleavage was 0.138.

As for C24U G50U, the self-cleavage worked out at 0.585.

On to C24G G52U, for which the self-cleavage came out at 0.0852.

For C24G G39U, the self-cleavage worked out at 0.0314.

For the variant C24U U60G, the self-cleavage turned out to be 0.573.

In the case of C24U A87U, the self-cleavage was 0.696.

In the case of C24G G80C, the self-cleavage is 0.271.

Turning to C24G G81U, the self-cleavage was determined as 0.0707.

C24A G55C: the self-cleavage is 0.818.

With C24U U72C, the self-cleavage is 0.104.

C24G U27C: the self-cleavage came out at 0.0791.

With C24G U27G, the self-cleavage came out at 0.0536.

On to C24G U72C, for which the self-cleavage amounted to 0.111.

As to C24G U72G, the self-cleavage was 0.

C24G U72A: the self-cleavage worked out at 0.0437.

In the case of C24A C44U, the self-cleavage stood at 0.0831.

For C24A C44G, the self-cleavage was determined as 0.256.

As to C24U C36A, the self-cleavage came to 0.0256.

For C24A G38A, the self-cleavage was 0.208.

Take C24A G38C: the self-cleavage worked out at 0.199.

Regarding C24A A77G, the self-cleavage turned out to be 0.256.

As to C24A A77U, the self-cleavage was 0.185.

C24G U46G: the self-cleavage turned out to be 0.

Take C24G U46A: the self-cleavage is 0.0326.

Regarding C24G U46C, the self-cleavage came out at 0.106.

In the case of C24G C75A, the self-cleavage came out at 0.0277.

Take C24G C75U: the self-cleavage was 0.0554.

As to C24G C75G, the self-cleavage was 0.13.

Turning to C24G A87G, the self-cleavage stood at 0.137.

For the variant C24G A87C, the self-cleavage was 0.128.

Consider C24G A87U, for which the self-cleavage is 0.0902.

With U23G U65A, the self-cleavage amounted to 0.886.

Turning to C24A C61U, the self-cleavage was 0.757.

Consider C24A C61G, for which the self-cleavage is 0.678.

For the variant C24U U65C, the self-cleavage was 0.597.

Regarding C24U U65G, the self-cleavage came out at 0.435.

U23G G68A: the self-cleavage turned out to be 0.565.

In the case of C24A G29A, the self-cleavage was determined as 0.106.

In the case of C24G G28C, the self-cleavage was 0.214.

Turning to C24G G28A, the self-cleavage stood at 0.148.

Regarding C24G G28U, the self-cleavage was determined as 0.0594.

Take C24A U27G: the self-cleavage is 0.415.

As for C24U A42G, the self-cleavage worked out at 0.0923.

Regarding C24G G67A, the self-cleavage stood at 0.119.

On to C24G G67C, for which the self-cleavage was found to be 0.026.

For C24U G81C, the self-cleavage came to 0.111.

In the case of C24U G81A, the self-cleavage was determined as 0.185.

Regarding C24G G31A, the self-cleavage is 0.0594.

C24G G31U: the self-cleavage was found to be 0.0604.

For C24U G76C, the self-cleavage was 0.997.

In the case of C24U G76A, the self-cleavage amounted to 0.59.

In the case of C24A G40A, the self-cleavage is 0.809.

Regarding C24A G40C, the self-cleavage came to 0.117.

In the case of U23G U47G, the self-cleavage is 0.731.

On to U23G U47C, for which the self-cleavage was determined as 0.332.

U23G U47A: the self-cleavage amounted to 0.864.

Take C24U C57U: the self-cleavage was determined as 0.538.

As for C24U C57G, the self-cleavage worked out at 0.779.

For the variant C24U C57A, the self-cleavage turned out to be 0.831.

C24A C85U: the self-cleavage was found to be 0.594.

Regarding C24A C85G, the self-cleavage came out at 0.69.

In the case of C24G C49G, the self-cleavage is 0.0314.

Take C24G C49A: the self-cleavage was determined as 0.0804.

For C24A A51U, the self-cleavage amounted to 0.747.

On to C24G C58G, for which the self-cleavage came to 0.108.

C24G C58U: the self-cleavage turned out to be 0.117.

Consider C24G C58A, for which the self-cleavage came out at 0.121.

C24U A51G: the self-cleavage stood at 0.415.

C24G G50C: the self-cleavage is 0.0755.

On to C24G G50U, for which the self-cleavage was found to be 0.149.

Turning to C24G A77G, the self-cleavage was 0.298.

In the case of C24G A77C, the self-cleavage amounted to 0.0386.

C24G A77U: the self-cleavage came out at 0.111.

For the variant C24U G29C, the self-cleavage was found to be 0.138.

Turning to C24U G29U, the self-cleavage amounted to 0.0594.

For the variant C24A A43U, the self-cleavage is 0.258.

Consider C24A A43G, for which the self-cleavage was 0.256.
